In the nanobody polyreactivity screen of Harvey et al. (2022):

Assay: yeast display, Sf9 membrane polyspecificity reagent, FACS + sequencing; frameworks hold sequencing errors
How it was run: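 A synthetic nanobody library was expressed on Saccharomyces cerevisiae BJ5465 by galactose induction for 36–48 hours. The library was stained for 1 hour at 4 °C with 10% biotinylated, detergent-solubilized Sf9 membrane reagent and enriched with streptavidin microbeads before FACS. Low and high (top ~1%) gates were set on anti-HA fluorescence for expression and streptavidin fluorescence for reagent binding, and each polyreactivity label reflects the gate of origin.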

| Sequence | polyreactivity (PSR sort gate) |
| --- | --- |
| QVQLVESRGGLVQAGGSLRLSFAASGSNFGAYAMVWYRQAPGKERELVAGITGSGGTTYYADSVKGRFTISRDNGKNTVYLQMNSLTPEDTAVYDCAKRVWVRYYYWGQGTQVTVSS | high polyreactivity |
| QVQLVESRGGLVQAGGSLRLSFPASGSTFYKYAKGWYRQAPGKERELVASISRRAGSTYYADSVKGRFTISRDNAKNTVDVQMTSLKPEDTAVYYCAAVGRYDRVFDYDYWGQGTQVTVSS | high polyreactivity |
| QVQLVESRGGLVQAGRSLRLSCAASGITFYSYAMGWYRQEPGKERELVAAITLTGGTTYYADSVKGRFTISRDNAKNTVYLQMNSLKPEDTAVYYCAAQYWWWSRFEYDSCGQGTQVTVSS | low polyreactivity |
| QVQLVESRGRLVQAGGSLRLSCAASGSIFVGNAMGWYRQAPGKERELVAAISSGGSTYYADSVKGRFTISRDNAKNTVYLQMNSLKPEDTAVYFGAAYYVRRYSSRPKDDYWGQGTQVSVSS | low polyreactivity |
| QVQLVESRGRLVQAGGSLRLSCAASGYTFNHNAMGWYRPAPGKETELVAVITPRAGSTYYADSVKGRFTISRDNAKNTVYLQKNSLKPEDSAVYYCNADGFVRRTLRYDYWVQGTQVTVSS | high polyreactivity |
| QVQLVESRGVLVQAGGSLRLSCAASGFTFYHYAMGWYRQAPGKDRELVAALDNGGSTYADSVKGRFTISRDNATNTVSLQRNSLKPEDTAVYYCAAVYLRYINGFYFWGQGTQVTVSS | low polyreactivity |
| QVQLVESRRGLVQAGASLRLSCAASGSTFYGYGMGWYRQAPGKERELVAAITGSGDTTYYADSVKGRFTISRDNAKNTVYLQMNSLKPEDTAVYYCNARWHAEYDYWGQGTQVTVSS | low polyreactivity |
| QVQLVESRRGLVQAGGSLRLSCAGSGRIVSDYAMGWYRQAPGKERELVATITSGDSTNYADSVKGRFTISRDNAKNTVYLQMNSQKPEDTAVYYCNADRFADYDYWGQGTQVTVSS | low polyreactivity |
| QVQLVESRVGLVQAGGSLRLSCAASGIIFTLYAMGWYRQAPGKERELVAGIDASGGSTSYADSVKGRFTISRDNAKNTVYLQMNSLKPEVTAVYYCAARILPYGYDYWGQGTQVTVSS | low polyreactivity |
| QVQLVESRWRFVQAGGSLRLSCAASGSIFADYAMGWYRQATGKERELVAAITFSGGSTYYADSVKGRFTISRDNENNTVYLQMNSLKPEDTAVYYCAARWRYRYYSWGQGTQVTVSS | high polyreactivity |
| QVQLVESSGGLVQAGCSLRLSCAASGFTFGYYAMGWYRQAPGKERELVAAISRSGGRTYYADSVKGRFTISRDKAKNTVYLQMNSLNPEDTAVYYCAAWYVPGYLVDSDYWGQGTQVTVSS | high polyreactivity |
| QVQLVESVAGLVQAGGSLRLSCAASGSIFRFYAMGWYRQAPGKERELVAGITWSGASTYYADSVKGRFTISRDNAKNTVYLQMNSLKPEDTAVYYCAKRYRLDGFYYWGQGTQVTVSS | high polyreactivity |
| QVQLVESVGCLVQAGGSLRLICAASGSIFVDYAMGWYRQAPGKERELVAAISSGGGSTYYADSVKGRFTISRDNSKYTVYLQMNSLKPEDTAVYYCATDLQPRSFLYWYNYWGQGTQVTVSS | low polyreactivity |
| QVQLVESVGCLVQAGGSLRLSCAASGNIITNNAMGWYRQAPGKERELVAAITRGGNTNYADSVKGRFTISRDNAKKTVYLQMKSLKPEDTAVFYCAADRYVELLGYFFEYDYWGQGTQVTVSS | low polyreactivity |
| QVQLVESVGDLVQEGGSLRLSCAASGRIFYWYAMGWYRQAPGKETELVAAITSGGSTYYADSVKGRFTISRDNAKNTVYLQMNSLKPEDTAVYYCAKPFSSNSCSHGYWGQGTQVTVSS | low polyreactivity |
| QVQLVESVGGLDQAGGSLRLRCAASGFIVGYYAMGWYRQAPGKEWEFVAAISWTGGNTYYADSVKGRFTISRDNAKNTVSLQLNSLKPEDTAVYYCNVVVSGYADRDGYNYWGQRTQVTVSS | high polyreactivity |
| QVQLVESVGGLDQAGGSLRLSCAASGRIFRQNAMGWYRQAPGKERELVAAISRSGGSTYYADSVKGRFTISRDNAKNTVYLQMNSLKPEDTAVYYCNRDYQSQRTYPRRYDYCGQGTQVTVSS | low polyreactivity |
| QVQLVESVGGLDQAGGSLRLSCAASGRTFYRNAMGLYRQAPGKERELVSAITGSGGSTYYADSVKGRFTISRDNAKNTVYLQMNSLKPEDTAVYYCAAGTRIYNSLIGFDYWGQGTQVTVSS | high polyreactivity |
| QVQLVESVGGLVEAGGSLRLSCAASGSILGGYAMGWYLQAPGKESELVAAITSSGGRTYYADCVKGRFTMSRDNAKNTVYLQMNSLKPEDTAVYYCAARYSRWRYNYKDYAYWGQGTQVTVSS | high polyreactivity |
| QVQLVESVGGLVKAGGSLRLSCAASGSTFRYYSMGWYRPAPGKERELVAGITTGGGRTYYADSVKGRFTISRDNAMNTVYLQMNSLKPEDTAVYSCAADRYSHYWYRNSYDYWGQGTQVTVSS | high polyreactivity |
| QVQLVESVGGLVQAGASLRLSCAASGFTIDRYAMGWYIQAPAKERELVAAISGSGGRTYYADSVKGRFTISRDNAKNTVYLQMNSLKPEVTAVYYCAAVYLVTRGARYDYCGQGTQVTVSS | high polyreactivity |
| QVQLVESVGGLVQAGASLRLSCAASGSIFGYNPMGWYRQAPGKERELVAVINASGASTYYADSVKGRFTISRDNAKNTVYLQMNSLKPEDTAVYYCAKDPFPFPGGDYWGQGTQVTVSS | low polyreactivity |

| Sequence | polyreactivity (PSR sort gate) |
| --- | --- |
| QVQLVESVGGLVQAGASLRLSCAASGSTFDYYAMGSYRQAPGKERELVAAISRTGGRTYYADSVKGRFTISRDNAKNTVYLQMNSLKPEDTAVYYCNAVTRIGGGDYDYWGQGTQVTVSS | low polyreactivity |
| QVQLVESVGGLVQAGCSLRLSCAASGSIIRTNTMGWYRQAPGKEREFVAAISRSGGSTYYADSVKGRFTISRDNAKNTVYLQMNSLKPEDTAGYYCNARWGLGSYGYWGQGTQVTVSS | high polyreactivity |
| QVQLVESVGGLVQAGDSLPLSCAPSAYIFRAYAMGWFRQAPGKASELVAAISSRGGSTYYADSVKGRFTISRDNATQTVYLQMNSLKPEDTAVYYCAAAYRQPYIGYGYWGQGTQVTVTS | high polyreactivity |
| QVQLVESVGGLVQAGGILRLSCAASGSIFRSYAMGWYRQAPGKERELVAAIRSDGRTNYADSLKGRFTISRDNAKNTVYFPMNRLKPEDTAVYYCAAKAYYSYWRSMDYWGQGTQVTVSS | low polyreactivity |
| QVQLVESVGGLVQAGGRLRLSCDASGFIFANYAMGWYRQATGKERELVAAITSGTGTNYADSVKGRFTISRDNAKNTVYLQMNSLKPEDTAVYYCAAYYTWLSEFGYWGQGTQVTVSS | low polyreactivity |
| QVQLVESVGGLVQAGGSLLLSCAASGGIFWVYALGWYRQAPGKVRELVAAISYDTTSTYYADSVKGRFTISRDNAKNTVYLQMNRLKPEDTAVYYCNKTTLLTVEYDYGGQGTQVTVSS | low polyreactivity |
| QVQLVESVGGLVQAGGSLPLSCAASGFTFSDYAMGWYRQAPGKESELVAGISSGGYTNYADSVKGRFTISRDNAKNTVYLQMNSLKPEDTAVYYCAAAYYSKFGYWGKGTQVTVSS | high polyreactivity |
| QVQLVESVGGLVQAGGSLRISSAASGRTFERNTKGWYRQAPGKERELVAAITYDGGSTYYADSVKGRFTISRDNAKKTVYLKMNSLKPEDTAFYYCNAGGYEIYRSPFDYWGQGSQVTVSS | low polyreactivity |
| QVQLVESVGGLVQAGGSLRLICAASGRTFRGYAMGWYRQAPGKERELVAAISSSGGRTYYADSVKGRFTISRDNAKNTVYLQMNSLKPEDTAVYYCAAAVTLSPAQYGYWGQGTQVTVSS | high polyreactivity |
| QVQLVESVGGLVQAGGSLRLICAASGYTFSRNAMGWYRPAPGKERELVAVISSGGSTYYADSVKGRFTISRDNAKNTVYLQMNSLKPEDTAVYYCNTGVYRYGYWYDYWGQGTQVTVSS | high polyreactivity |
| QVQLVESVGGLVQAGGSLRLRCAASGRTFGVYAMGWYRQAAGKESEFVATITSRGGRTYSADSVKGRFTISRDNAKKTVYLQMNSLIPEDTAVYYCAAQVGRNGVSEYDYWGQGTQVTVSS | high polyreactivity |
| QVQLVESVGGLVQAGGSLRLSCAASGFIFGYNAMGWYRQAPGKERELVAAITSRGDRTYYADSVKGRFTISRDNAKNTVYLQMNSLKPEDTAVYYCAKATRGYRSPYCSIGYYYWGQGTQLTVSS | high polyreactivity |
| QVQLVESVGGLVQAGGSLRLSCAASGFIFKGNAMGWYRQAPGKERELVAAITNRGGGTYYADSVKGRFTISRDNAKNTVYLQMNSLKPEDTAVYYCAKAYTRPFHPYDYWGQGTQVTVSS | high polyreactivity |
| QVQLVESVGGLVQAGGSLRLSCAASGFIFNWYAMGWYRQAPGKERELVAAITSGGSTNYADSVKGRFTISRDNAKNTVYLQMNSLKPEDTAVYYCAARDWRRYGYWGQGTQVTVSS | high polyreactivity |
| QVQLVESVGGLVQAGGSLRLSCAASGFIFSQYAMGWDRKAPGKERELVAAISKSGGRTYYADSVKGRFTFSRDNAKNTVYLQMNSLKPEDTAVYYCAAVSYSSYRYDYWGQGTQVTVSS | high polyreactivity |
| QVQLVESVGGLVQAGGSLRLSCAASGFIFYGYAMGWYRQAPGKERELVAAISRSGTSTYYADSVKGRFTISRDNAKNTVYLQMNSLKPEDTAVYYCAADYVGWKWGSRGAIYKHYYWGQGTQVTVSS | high polyreactivity |
| QVQLVESVGGLVQAGGSLRLSCAASGFIFYSNAMGWYRKAPGKERELVAAISRSGGSTYYADSVKGRFTISRDNAKNTVYLQMNSLKPEDTAVYYCNVYCYDWWGYDYWGQGTQVTVSS | high polyreactivity |
| QVQLVESVGGLVQAGGSLRLSCAASGFIFYYNTMGWYRQAPGKERELVAAISSGGRTYYADSVKGRFTISRDNAKNTVYLQMNSLKPEYTAVYYCNVVTYVKYGYWGQGTQVTVSS | high polyreactivity |
| QVQLVESVGGLVQAGGSLRLSCAASGFNFDYYTMGWYRQAPGKEREFVAAINRRGDITYYADSVKGRFTISRDNAKNTVYLQMNSLKPEDTAVYYCAANLTCSSRYEYGYWGQGTQVTVSS | low polyreactivity |
| QVQLVESVGGLVQAGGSLRLSCAASGFNFPGYAMGWYRPAPGKERELVAAITGSGGRTYYADSVKGRFTISRDNAKNTVYLQMISLKPEDTAVYYCLARSYYNWYDYWGKGTQVTVSS | high polyreactivity |
| QVQLVESVGGLVQAGGSLRLSCAASGFNFSAYAMGGYRQAPGKESELVAAISWSGSRTYYADSVKGRFTISRDNAKNTVYLQMNSLKPEDTAVFYCAKEPYDTFGFYEYDYWGQGTQVTVSS | low polyreactivity |
